Patent US20150072922A1, “RNASE 7 ANTIMICROBIAL PEPTIDES” (THE RESEARCH INSTITUTE AT NATIONWIDE CHILDREN'S HOSPITAL, priority 2012, published 2015)
Entries after “also recorded” stand apart in the source; their conditions may differ.

B1: F:1-97: recombinant N-terminal RNase 7 fragment, amino acids 1 to 97 (SEQ ID NO: 5), N-terminal His tag (protein, listed as Homo sapiens)
chain: KPKGMTSSQWFKIQHMQPSPQACNSAMKNINKHTKRCKDLNTFLHEPFSSVAATCQTPKIACKNGDKNCHQSHGPVSLTMCKLTSGKYPNCRYKEKR
modifications: N-terminal His tag
B2: RNase7: recombinant full-length human Ribonuclease 7, amino acids 1-128 (SEQ ID NO: 1), N-terminal His tag (protein, listed as Homo sapiens)
chain: KPKGMTSSQWFKIQHMQPSPQACNSAMKNINKHTKRCKDLNTFLHEPFSSVAATCQTPKIACKNGDKNCHQSHGPVSLTMCKLTSGKYPNCRYKEKRQNKSYVVACKPPQKKDSQQFHLVPVHLDRVL
modifications: N-terminal His tag

Legend:
[1] = tested on: Staphylococcus saprophyticus (ATCC 15305); assay: Antimicrobial kill (microdilution) assay, MIC/MBC by CFU count; assay type: cell-based; conditions: for antimicrobial activity against S. saprophyticus (in words): MIC/MBC based, mostly compared to full-length RNase 7; for S. saprophyticus MIC: lowest concentration that inhibits the growth of 90% of the inoculation; for S. saprophyticus MIC / S. saprophyticus MBC: 3 hours, 0.1×PBS; for S. saprophyticus MBC: minimum bactericidal concentration
Protocol: (§1) The antimicrobial activity of RNase 7 and its fragments was estimated using a microdilution assay. Briefly, test bacteria (10^5) were incubated with several concentrations of RNase 7 and each fragment in 50 μl 0.1×PBS buffer for 3 hours in a 37° C. incubator. Each reaction was plated on the appropriate medium and grew overnight at 37° C. The antimicrobial activity was determined by the number of colony-forming units (CFUs) the following day. The minimum inhibition concentration (MIC) is defined as the lowest concentration that inhibits the growth of 90% of the inoculation and the minimum bactericidal concentration (MB C) is defined as the lowest concentration at which less than 99.99% of the initial inoculum is viable.
(§2) Antimicrobial activities of the recombinant peptides were estimated with a microdilution assay. Briefly, the test bacteria (10^4 CFUs) were incubated with various concentrations of RNase 7 and each fragment in 50 ul 0.1×PBS buffer for 3 hours at 37° C. After incubation on Agar plates overnight at 37° C., the number of colony-forming units (CFUs) at each peptide concentration was determined. Using untreated bacterial aliquots as baseline, the minimum inhibition concentration (MIC) was defined as the lowest concentration that inhibits the growth of 90% of the inoculation, and the minimum bactericidal concentration (MBC) was defined as the lowest concentration at which less than 99.99% of the initial inoculum is viable.

[2] = tested on: Escherichia coli (UTI89); assay: as above; assay type: cell-based; conditions: for antimicrobial activity against E. coli (in words): MIC/MBC based, mostly compared to full-length RNase 7; for E. coli MIC: lowest concentration that inhibits the growth of 90% of the inoculation; for E. coli MIC / E. coli MBC: 3 hours, 0.1×PBS; for E. coli MBC: minimum bactericidal concentration
Protocol: as §1, §2

[3] = tested on: S. saprophyticus; assay: Urinary condition functional assay (OD600 growth curves); assay type: cell-based, Staphylococcus saprophyticus; conditions: for activity on S. saprophyticus growth at various NaCl titers: 2 μM peptide, 50, 150, 500 mM NaCl, FIG. 7; for activity on S. saprophyticus growth at various NaCl titers / activity on S. saprophyticus growth at various CaCl2 titers: OD600 for 10 hours; for activity on S. saprophyticus growth at various CaCl2 titers / activity on S. saprophyticus growth at various pH levels: 2 μM peptide; for activity on S. saprophyticus growth at various CaCl2 titers: CaCl2 up to 16.25 mM, FIG. 8; for activity on S. saprophyticus growth at various pH levels: pH 5, 7, 9, OD600 for 10 hours, FIG. 6
Protocol: (§3) Because the urinary environment can have significant variation in salt concentration, ionic composition, and pH, an antimicrobial/bacteriostatic assay was performed to evaluate if pH, calcium, or ionic strength affects the activity of full-length RNase7 or its fragments. The highest activity fragment F:1-97 and lowest activity fragment F:72-128 for these experiments were chosen. Bacteria were inoculated in 1% peptone water and growth to log phase with OD600=0.5. Bacteria were diluted to 1:10 and 1 μl added to 100 μl of 1% peptone water with various pH, CaCl2 or NaCl concentrations that correspond to a physiologic range present in the urine in a 96-well flat bottom plate (Thermo Scientific, Nunc, Worcester, Mass.). To each well, 2 μM of RNase7 or its fragments were added.
(§4) Bacterial growth was monitored using an Absorbance microplate reader (BioTek Instruments, Winooski, Vt.) at a final volume of 110 μl. The turbidity of the culture was measured and recorded at t=0 and every 20 min thereafter for 10 hours using the absorbance at 600 nm (OD600). The values of OD600 values were plotted against times to generate growth curves.

[4] = tested on: Proteus mirabilis; assay: as above; assay type: cell-based; conditions: for activity on Proteus mirabilis growth at various CaCl2 titers: 2 μM peptide, 1.25, 7.5, 16.25 mM CaCl2, OD600 for 10 hours, FIG. 11; for activity on Proteus mirabilis growth at various NaCl titers: 2 μM peptide, 50, 150, 500 mM NaCl, OD600 for 10 hours, FIG. 10; for activity on Proteus mirabilis growth at various pH levels: 2 μM peptide, pH 5, 7, 9, OD600 for 10 hours, FIG. 9
Protocol: as §3, §4

[5] = tested on: Proteus mirabilis (ATCC 7002); assay: Antimicrobial kill (microdilution) assay, MIC/MBC by CFU count; assay type: cell-based; conditions: for P. mirabilis MIC: lowest concentration that inhibits the growth of 90% of the inoculation; for P. mirabilis MIC / P. mirabilis MBC: 3 hours, 0.1×PBS; for P. mirabilis MBC: minimum bactericidal concentration
Protocol: Uropathogenic Escherichia coli (UTI89) was grown in Luria broth (LB) medium and plated on LB-agar. Uropathogenic Staphylococcus saprophyticus (ATCC 15305) was grown in LB and plated on Trypticase Soy Agar with 5% sheep blood (Fisher Scientific, Pittsburgh, Pa., USA). Uropathogenic Proteus mirabilis (ATCC 7002) was grown in LB and plated on MacConkey II Agar (Fisher Scientific, Pittsburgh, Pa., USA). These organisms were chosen as the primary organisms that account for a majority of Gram-negative and Gram-positive urinary tract infections (UTI). Anti-RNase 7 antibody was generated in rabbit with recombinant human RNase 7 (Biomatik, Wilmington, Del., USA)
as §2

[6] = tested on: S. Saprophyticus (ATCC 15305); assay: Live/Dead BacLight bacterial viability assay (confocal imaging); assay type: cell-based, Staphylococcus saprophyticus; conditions: 1 μM
Protocol: (§5) Bacterial viability assays were performed using a Live/Dead BacLight™ bacterial viability kit (Invitrogen). Uropathogenic E. coli (UTI-89) and S. Saprophyticus (ATCC 15305) were grown at 37° C. to the mid-log phase, centrifuged at 5000 rpm for 5 min, and resuspended in water with an OD=0.2. Bacteria were stained using a 1:1 mixture of a green-fluorescent STY®9 dye and a red-fluorescent propidium iodide dye as provided in the Live/Dead BacLight™ bacterial viability kit. SYTO®9 labels both live and dead bacteria. Propidium iodide penetrates only bacteria with damaged membranes. Consequently, live bacteria with intact membranes fluoresce green, while dead bacteria with damaged membranes fluoresce red. […]. 50 uL of stained uropathogenic bacteria was mixed with recombinant RNase 7 or RNase 7 fragments to achieve a final concentration of 3 uM and 1 uM. 10 uL of this mixture was added to poly-1-lysine coated microscope slides (Polysciences, Inc, Warrington, Pa., USA) and confocal images of the bacteria were obtained using a Zeiss LSM 700 confocal laser scanning microscope (Carl Zeiss LLC, Thornwood, N.Y., USA). SYTO®9 was excited using an argon laser (448-500 nm emission collected) and propidium iodide was excited using an orange diode (555-600 nm emission collected). Samples were imaged in triplicate.
(§6) For images of intact versus disrupted membranes of dying/dead cells, the Live/Dead BacLight™ bacterial viability kit (Invitrogen) was used. E. coli and S. saprophyticus were grown at 37° C. to the mid-log phase, centrifuged at 5000 rpm for 5 min, and resuspended in water to an OD600 of 0.2. Bacteria were incubated in a 1:1 mixture of Live/Dead BacLight™ bacterial viability assay. A bacterial aliquot of 50 μL was mixed with recombinant RNase 7 or recombinant fragments to achieve a final concentration of 1 μM. Ten microliters of this mixture was added to poly-1-lysine coated microscope slides (Polysciences, Inc, Warrington, Pa., USA), and images were obtained in triplicate using a Zeiss LSM 710 confocal laser scanning microscope (Carl Zeiss LLC, Thornwood, N.Y., USA).

[7] = tested on: E. coli; assay: Urinary condition functional assay (OD600 growth curves); assay type: cell-based, Escherichia coli; conditions: for activity on E. coli growth at various pH levels / activity on E. coli growth at various CaCl2 titers: 2 μM peptide; for activity on E. coli growth at various pH levels: 1% peptone water, pH 5, 7, 9, OD600 for 10 hours, FIG. 3; for activity on E. coli growth at various NaCl titers: 2 μM peptide, 50, 150, 500 mM NaCl, FIG. 4; for activity on E. coli growth at various NaCl titers / activity on E. coli growth at various CaCl2 titers: OD600 for 10 hours; for activity on E. coli growth at various CaCl2 titers: CaCl2 up to 16.25 mM, FIG. 5
Protocol: as §3, §4

[8] = tested on: E. coli (UTI-89); assay: Live/Dead BacLight bacterial viability assay (confocal imaging); assay type: cell-based, Escherichia coli; conditions: 1 μM
Protocol: as §5, §6

[9] = compared to full-length RNase 7

Molecule	S. saprophyticus MIC [1] [µM]	S. saprophyticus MBC [1]	E. coli MIC [2] [µM]	E. coli MBC [2] [µM]	activity on S. saprophyticus growth at various NaCl titers [3]	activity on S. saprophyticus growth at various CaCl2 titers [3]	activity on S. saprophyticus growth at various pH levels [3]	activity on Proteus mirabilis growth at various CaCl2 titers [4]	activity on Proteus mirabilis growth at various NaCl titers [4]	activity on Proteus mirabilis growth at various pH levels [4]	P. mirabilis MIC [5]	P. mirabilis MBC [5]	killing of S. saprophyticus in Bacterial Viability Assay ([6]; 30 min)	killing of S. saprophyticus in Bacterial Viability Assay ([6]; 3 hours)	activity on E. coli growth at various pH levels [7]	activity on E. coli growth at various NaCl titers [7]	activity on E. coli growth at various CaCl2 titers [7]	killing of E. coli in Bacterial Viability Assay ([8]; 30 min)	killing of E. coli in Bacterial Viability Assay ([8]; 3 hours)	also measured
B1	0.04	0.08 µM	0.07	0.14	diminished in direct proportion to NaCl concentration; also recorded: activity pattern comparable to full-length peptide at various NaCl concentrations	sensitive to CaCl2 concentrations; also recorded: activity is inversely related to CaCl2 concentration but more pronounced compared to full length RNase 7	optimal activity at pH 5	unchanged activity under all conditions against P. mirabilis; also recorded: activity is not significantly altered by CaCl2 concentrations	activity pattern comparable to full-length peptide at various NaCl concentrations	optimal activity at pH 5 (gray squares), but less compared to full length	.44 µM	.88 µM	killed most of the E. coli and S. saprophyticus	completely dead	activity pattern comparable to full-length peptide at various pHs	activity pattern comparable to full-length peptide at various NaCl concentrations	activity pattern comparable to full-length peptide at various CaCl2 concentrations; also recorded: sensitive to CaCl2 concentrations	killed most of the E. coli and S. saprophyticus	completely dead	antimicrobial activity against S. saprophyticus (in words) [1]: decreased relative to the full-length peptide; antimicrobial activity against S. saprophyticus (in words) ([1]; listed as 1-97): increased activity against both strains; MICs and MBCs fold lower than full length protein, S. saprophyticus [1, 9]: at least 4 fold; antimicrobial activity against E. coli (in words) [2]: decreased relative to the full-length peptide; antimicrobial activity against E. coli (in words) ([2]; listed as 1-97): strongest activity; also recorded: increased activity against both strains; MICs and MBCs fold lower than full length protein, E. coli [2, 9]: at least 4 fold
B2	0.22	.44 µM	0.26	0.53	diminished in direct proportion to NaCl concentration; also recorded: activity inversely related to NaCl concentration	significantly reduced full-length RNase 7 activity against all uropathogens; also recorded: activity is inversely related to CaCl2 concentration	activity is potent at all pH; also recorded: maintained high activity at pH 5	significantly reduced full-length RNase 7 activity against all uropathogens; also recorded: activity is significantly diminished at higher CaCl2 concentrations but relatively unaffected at 1.25 mM concentration	diminished significantly with additional of any NaCl titer; also recorded: activity markedly diminished at all salt concentrations	maintained high activity at pH 5; also recorded: activity is potent at pH 5	.88 µM	.88 µM	did not	completely dead	pH 9 (dotted line) decreases full-length RNase 7 activity; also recorded: activity was optimal at pH 7 against E. coli	activity was not different at 50 and 150 mM NaCl	activity is inversely related to CaCl2 concentration; also recorded: significantly reduced full-length RNase 7 activity against all uropathogens	did not	completely dead	MIC for S. saprophyticus [1]: 0.22 µM; MIC against E. coli [2]: 0.26 µM; MIC for E. coli ([2]; E. coli UTI89): 0.26 LM; MIC for P. mirabilis [5]: 0.88 µM; antimicrobial activity against P. mirabilis (in words) ([5]; MIC/MBC based, mostly compared to full-length RNase 7): MIC and MBC values that were identical
